{"source": "patent US20220389379A1", "about": "“PRIMARY BREAST EPITHELIAL CELL CULTURE MEDIUM, CULTURE METHOD AND USE THEREOF” (PRECEDO PHARMACEUTICALS CO., LTD, priority 2019, published 2022)", "molecules": {"B1": {"name": "R-spondin1: R-spondin family protein, medium additive (protein, UniProt Q2MKA7 21-263, looked up)", "R-spondin-1": "SRGIKGKRQRRISAEGSQACAKGCELCSEVNGCLKCSPKLFILLERNDIRQVGVCLPSCPPGYFDARNPDMNKCIKCKIEHCEACFSHNFCTKCKEGLYLHKGRCYPACPEGSSAANGTMECSSPAQCEMSEWSPWGPCSKKQQLCGFRRGSEERTRRVLHAPVGDHAACSDTKETRRCTVRRVPCPEGQKRRKGGQGRRENANRNLARKESKEAGAGSRRRKGQQQQQQQGTVGPLTSAGPA"}, "B2": {"name": "R-spondin3: R-spondin family protein, medium additive (protein, UniProt Q9BXY4 22-272, looked up)", "R-spondin-3": "QNASRGRRQRRMHPNVSQGCQGGCATCSDYNGCLSCKPRLFFALERIGMKQIGVCLSSCPSGYYGTRYPDINKCTKCKADCDTCFNKNFCTKCKSGFYLHLGKCLDNCPEGLEANNHTMECVSIVHCEVSEWNPWSPCTKKGKTCGFKRGTETRVREIIQHPSAKGNLCPPTNETRKCTVQRKKCQKGERGKKGRERKRKKPNKGESKEAIPDSKSLESSKEIPEQRENKQQQKKRKVQDKQKSVSVSTVH"}, "B3": {"name": "Amphiregulin: human amphiregulin (R&D Systems), medium additive (protein, UniProt P15514 101-187, looked up)", "Amphiregulin": "SVRVEQVVKPPQNKTESENTSDKPKRKKKGGKNGKNRRNRKKKNPCNAEFQNFCIHGECKYIEHLEAVTCKCQQEYFGERCGEKSMK"}, "B4": {"name": "Fibroblast growth factor 7: fibroblast growth factor 7 (FGF7), medium additive (protein, UniProt P21781 32-194, looked up)", "Fibroblast growth factor 7": "CNDMTPEQMATNVNCSSPERHTRSYDYMEGGDIRVRRLFCRTQWYLRIDKRGKVKGTQEMKNNYNIMEIRTVAVGIVAIKGVESEFYLAMNKEGKLYAKKECNEDCNFKELILENHYNTYASAKWTHNGGEMFVALNQKGIPVRGKKTKKEQKTAHFLPMAIT"}, "B5": {"name": "Fibroblast growth factor 10: fibroblast growth factor 10 (FGF10), medium additive (protein, UniProt O15520 38-208, looked up)", "Fibroblast growth factor 10": "QALGQDMVSPEATNSSSSSFSSPSSAGRHVRSYNHLQGDVRWRKLFSFTKYFLKIEKNGKVSGTKKENCPYSILEITSVEIGVVAVKAINSNYYLAMNKKGKLYGSKEFNNDCKLKERIEENGYNTYASFNWQHNGRQMYVALNGKGAPRRGQKTRRKNTSAHFLPMVVHS"}, "B6": {"name": "Noggin: medium additive (R&D) (protein, UniProt Q13253 28-232, looked up)", "Noggin": "QHYLHIRPAPSDNLPLVDLIEHPDPIFDPKEKDLNETLLRSLLGGHYDPGFMATSPPEDRPGGGGGAAGGAEDLAELDQLLRQRPSGAMPSEIKGLEFSEGLAQGKKQRLSKKLRRKLQMWLWSQTFCPVLYAWNDLGSRFWPRYVKVGSCFSKRSCSVPEGMVCKPSKSVHLTVLRWRCQRRGGQRCGWIPIQYPIISECKCSC"}, "B7": {"name": "Interleukin 10: medium additive (R&D) (protein, UniProt P22301 19-178, looked up)", "Interleukin-10": "SPGQGTQSENSCTHFPGNLPNMLRDLRDAFSRVKTFFQMKDQLDNLLLKESLLEDFKGYLGCQALSEMIQFYLEEVMPQAENQDPDIKAHVNSLGENLKTLRLRLRRCHRFLPCENKSKAVEQVKNAFNKLQEKGIYKAMSEFDIFINYIEAYMTMKIRN"}}, "system": "primary breast tumor epithelial cells isolated from breast cancer tissues (HMFL-XN1, HMFL-XN3, HMFL-XN4, HMFL-XN6, HMFL-XN8)", "assay": "Optimization of primary breast epithelial cell culture medium: cell count after culture with medium additives", "type": "cell-based, human", "parameters": "key: +: compared with the basis medium, the medium added with the additive(s) can promote the proliferation of primary breast tumor epithelial cells isolated from at least three cases of breast cancer tissues; −: the medium added with the additive(s) has the effect of inhibiting proliferation of primary breast tumor epithelial cells isolated from at least two cases of breast cancer tissues; ○: the medium added with this additive(s) has no significant effect on the proliferation of primary breast tumor epithelial cells isolated from at least three cases of breast cancer tissues", "conditions": "additive at the concentration given in Table 1 added to basis medium; cell count after 10 days of culture, compared with basis medium; five breast cancer samples", "method": "Matrigel (registered trademark) (manufactured by BD Biosciences) was diluted at 1:100 in serum-free DMEM/F12 medium to prepare an extracellular matrix dilution, which was added to a 48-well culture plate with 200 μl/well to completely cover the bottom of the wells of the culture plate. The resultant was let stand for 1 hour in a 37° C. incubator. After 1 hour, the extracellular matrix dilution was removed to provide a Matrigel-coated plate.\nFirst, a basis medium was prepared. To a commercial DMEM/F-12 medium, GlutaMAX-I (manufactured by Thermo Fisher SCIENTIFIC) was added at the specified concentration (1:100 dilution), human insulin (manufactured by Sigma) was added at a final concentration of 10 μg/ml, ROCK kinase inhibitor Y27632 (manufactured by Sigma) was added at a final concentration of 10 μM, and penicillin-streptomycin (manufactured by Thermo Fisher SCIENTIFIC) was added at a 1:100 dilution ratio, which provides the basis medium.\nNext, different types of additives (as shown in Table 1) were added to the basis medium to prepare breast epithelial cell culture mediums containing different supplementary components, and the mediums with different components were added at a volume of 500 μl/well to 48-well plates which were coated with extracellular matrix gel (Matrigel). Breast tumor cells (HMFL-XN1) isolated from breast cancer tissue in step (1) of this Example were inoculated in a Matrigel-coated 48-well culture plate at a cell density of 1×10^4 cells/well, and equal numbers of freshly isolated breast tumor cells (HMFL-XN1) were cultured under different medium formulations at 37° C., under 5% CO2 concentration and 20% oxygen concentration. The medium was renewed every 4 days after the start of the culture. After 10 days of culture, cell counts were performed. As an experiment control, the basis medium without any additives was used. Breast tumor cells isolated from the remaining four breast cancer tissue samples were cultured and counted in the same manner as above.", "data": [{"molecule": "B1", "values": [{"measurement": "Degree of cell", "result": "○"}]}, {"molecule": "B2", "values": [{"measurement": "Degree of cell", "result": "○"}]}, {"molecule": "B3", "values": [{"measurement": "Degree of cell", "result": "+"}]}, {"molecule": "B4", "values": [{"measurement": "Degree of cell", "result": "+"}]}, {"molecule": "B5", "values": [{"measurement": "Degree of cell", "result": "+"}]}, {"molecule": "B6", "values": [{"measurement": "Degree of cell", "result": "○"}]}, {"molecule": "B7", "values": [{"measurement": "Degree of cell", "result": "○"}]}]}
